Reference: paper PMC3887095

Tests used:
[1] = biological target: T54A+A105T HIV-1 CA tubes (HIV-1); experiment: co-sedimentation; assembled CA tubes (5 µM) incubated 1 h with HeLa cell extracts (500, 250 or 125 µg) in 100 µl of 50 mM Tris pH 8, 150 mM NaCl, 5 mM MgCl2, 0.5 mM EDTA; pelleted 5 min at 5,000 x g and washed; non-reducing SDS-PAGE and quantitative immunoblotting for CPSF6 and CA; in one experiment with or without 5 µM CsA
[2] = biological target: RKLM+T107I HIV-1 CA tubes (HIV-1); experiment: as above
[3] = biological target: RKLM+S41A HIV-1 CA-NC tubular complexes (HIV-1); experiment: co-sedimentation; 5 µl of assembled CA-NC complexes mixed with 125 µg of HeLa cell lysate, NaCl adjusted to 150 mM, 1 h at room temperature; pelleted through a 60% sucrose cushion at 100,000 x g for 1 h at 4°C; CPSF6 in the pellet measured by LI-COR and normalized by CA-NC
[4] = biological target: RKLM+T107I HIV-1 CA-NC tubular complexes (HIV-1); experiment: as above

“endogenous CPSF6 (from UniProt Q16630 1-551) (natural protein)” showed a quantity of CPSF6 brought down relative to T54A CA tubes (fold of T54A CA tubes) [1] of 0.33, a reduced binding to CPSF6, percent [2] of 50% and a percent weaker binding than RKLM [3] of 7%. It also gave a reduced binding to CPSF6, percent [4] of 50%.
